{
  "source": "patent US20070117966A1",
  "about": "(UNIVERSITY OF ROCHESTER, published 2007)",
  "key": {"purified αvβ3 integrin [1]": {"biological_target": "T1, purified αvβ3 integrin (human, UniProt P06756 31-1048; P05106 27-788, limits assumed)", "T1 construct": "Bought purified integrin, coated on plates at 5 µg/ml; also called immobilized human αvβ3 integrin; CD51/CD61", "T1 sequence (P06756 31-1048 limits assumed, form in doubt, chain 1 of 2)": "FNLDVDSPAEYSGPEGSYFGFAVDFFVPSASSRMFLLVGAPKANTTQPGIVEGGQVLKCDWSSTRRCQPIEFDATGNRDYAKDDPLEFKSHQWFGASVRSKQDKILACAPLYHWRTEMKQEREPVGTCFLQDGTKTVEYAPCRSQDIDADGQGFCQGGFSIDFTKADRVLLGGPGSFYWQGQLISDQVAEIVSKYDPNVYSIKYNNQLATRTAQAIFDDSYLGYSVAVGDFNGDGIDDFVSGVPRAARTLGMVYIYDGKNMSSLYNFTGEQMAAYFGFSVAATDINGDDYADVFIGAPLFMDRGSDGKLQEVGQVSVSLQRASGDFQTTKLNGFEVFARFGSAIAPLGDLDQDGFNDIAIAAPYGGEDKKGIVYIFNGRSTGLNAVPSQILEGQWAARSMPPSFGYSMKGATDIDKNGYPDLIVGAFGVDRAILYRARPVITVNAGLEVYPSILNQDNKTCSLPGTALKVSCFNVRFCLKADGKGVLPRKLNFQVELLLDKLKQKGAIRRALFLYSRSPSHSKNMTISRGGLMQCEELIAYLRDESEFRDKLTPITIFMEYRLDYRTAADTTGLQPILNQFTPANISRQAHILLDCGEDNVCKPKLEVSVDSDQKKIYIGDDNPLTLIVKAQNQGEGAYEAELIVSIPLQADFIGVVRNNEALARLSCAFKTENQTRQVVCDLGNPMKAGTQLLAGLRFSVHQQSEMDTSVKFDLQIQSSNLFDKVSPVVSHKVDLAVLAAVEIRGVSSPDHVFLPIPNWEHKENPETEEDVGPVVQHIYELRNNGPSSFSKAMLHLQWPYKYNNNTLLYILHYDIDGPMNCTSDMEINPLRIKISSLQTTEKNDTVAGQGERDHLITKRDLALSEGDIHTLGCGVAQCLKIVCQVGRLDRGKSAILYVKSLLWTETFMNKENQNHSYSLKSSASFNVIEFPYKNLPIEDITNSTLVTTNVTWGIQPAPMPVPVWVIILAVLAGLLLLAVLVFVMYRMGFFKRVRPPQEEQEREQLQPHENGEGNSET", "T1 sequence (P05106 27-788 limits assumed, form in doubt, chain 2 of 2)": "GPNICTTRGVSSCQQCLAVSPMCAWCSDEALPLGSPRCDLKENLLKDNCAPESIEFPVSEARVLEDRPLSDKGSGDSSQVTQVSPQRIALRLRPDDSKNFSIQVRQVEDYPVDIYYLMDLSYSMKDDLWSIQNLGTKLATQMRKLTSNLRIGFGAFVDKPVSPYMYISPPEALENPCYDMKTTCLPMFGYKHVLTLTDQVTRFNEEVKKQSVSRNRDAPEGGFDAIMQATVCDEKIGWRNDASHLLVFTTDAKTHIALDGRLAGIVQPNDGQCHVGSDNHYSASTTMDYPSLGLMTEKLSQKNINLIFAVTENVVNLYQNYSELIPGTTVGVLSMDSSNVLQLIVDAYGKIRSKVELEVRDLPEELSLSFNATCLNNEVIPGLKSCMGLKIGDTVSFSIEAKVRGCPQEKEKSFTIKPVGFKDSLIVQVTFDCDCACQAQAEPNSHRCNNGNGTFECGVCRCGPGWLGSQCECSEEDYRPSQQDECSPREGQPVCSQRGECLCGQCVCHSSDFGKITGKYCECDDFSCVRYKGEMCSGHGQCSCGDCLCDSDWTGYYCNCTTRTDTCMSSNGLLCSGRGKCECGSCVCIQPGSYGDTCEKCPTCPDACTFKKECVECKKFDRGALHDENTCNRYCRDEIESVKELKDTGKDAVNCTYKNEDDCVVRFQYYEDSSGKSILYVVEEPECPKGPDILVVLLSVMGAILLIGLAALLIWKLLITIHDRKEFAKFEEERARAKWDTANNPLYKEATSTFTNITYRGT", "test": "competition ELISA on αvβ3 coated wells; competitor: biotinylated FNfn10-3JCLI4 at 800 pM; no inhibition at the highest concentration"}, "purified αvβ3 integrin [2]": {"biological_target": "T1, purified αvβ3 integrin"}, "[3]": {"biological_target": "αvβ3 integrin on K562-αvβ3 cells (human, UniProt P06756 31-1048; P05106 27-788)", "sequence (P06756 31-1048, chain 1 of 2)": "as the sequence (P06756 31-1048 limits assumed, form in doubt, chain 1 of 2) above", "sequence (P05106 27-788, chain 2 of 2)": "as the sequence (P05106 27-788 limits assumed, form in doubt, chain 2 of 2) above", "test": "cell-based or functional assay"}, "[4]": {"biological_target": "αIIbβ3 integrin on K562-αIIbβ3 cells (UniProt P08514 32-1039; P05106 27-788)", "test": "cell-based or functional assay"}},
  "note": "Like-named read-outs stand apart in the source and are kept apart here. No end group written: not given here.",
  "data": [
    {"binder": "GRGDSPK", "note": "[GRGDSPK peptide]", "values": [
      {"measurement": "IC50", "setting": "purified αvβ3 integrin [1]", "result": "> 80", "unit": "nM"}
    ]},
    {"binder": "QCESGPCCRNCKFLKEGTICKRARGDDMDDYCNGKTCDCPRNPHKGPAT (ligand, ends and bridges not checked; cysteine pairing not given here)", "note": "[echistatin]", "values": [
      {"measurement": "IC50", "setting": "purified αvβ3 integrin [2]", "result": 0.93, "unit": "nM"},
      {"measurement": "inhibition of adhesion of K562-αvβ3 cells to vitronectin, IC50", "setting": "[3]", "result": 5.9, "unit": "nM"},
      {"measurement": "inhibition of adhesion of K562-αIIbβ3 cells to fibronectin, IC50", "setting": "[4]", "result": 10.2, "unit": "nM"}
    ]}
  ]
}
